Patent US20050064507A1, “Determining kinase specificity” (priority 2003, published 2005)

Key:
[1] = biological target: T1, PKC-zeta (Homo sapiens, UniProt Q05513); assay: In vitro kinase assay: peptide phosphorylation by PKC-zeta; type: biochemical
T1 construct: purchased Calbiochem
T1 sequence (Q05513 1-592): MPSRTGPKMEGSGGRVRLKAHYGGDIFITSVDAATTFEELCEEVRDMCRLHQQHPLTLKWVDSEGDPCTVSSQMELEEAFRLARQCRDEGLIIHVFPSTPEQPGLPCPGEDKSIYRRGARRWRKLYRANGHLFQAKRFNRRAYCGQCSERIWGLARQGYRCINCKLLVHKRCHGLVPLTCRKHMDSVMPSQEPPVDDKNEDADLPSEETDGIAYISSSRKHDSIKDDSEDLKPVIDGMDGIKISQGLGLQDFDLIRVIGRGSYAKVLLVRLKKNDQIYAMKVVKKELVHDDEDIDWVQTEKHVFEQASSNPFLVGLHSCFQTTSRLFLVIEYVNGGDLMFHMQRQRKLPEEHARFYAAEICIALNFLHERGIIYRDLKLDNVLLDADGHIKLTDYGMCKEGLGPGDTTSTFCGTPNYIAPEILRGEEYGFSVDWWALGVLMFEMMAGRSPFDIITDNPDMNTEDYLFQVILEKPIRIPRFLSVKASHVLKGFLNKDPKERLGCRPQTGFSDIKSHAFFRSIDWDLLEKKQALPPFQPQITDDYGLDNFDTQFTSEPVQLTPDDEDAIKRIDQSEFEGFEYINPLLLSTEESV
Description: Catalytically active preparations of the kinases of interest were either purchased or prepared. Purchased and tested active kinase preparations including the following: PKC-alpha, PKC-delta, PKC-epsilon, PKC-zeta, PKC-mu, PKA, PKG from Calbiochem, ROK alpha/ROCK-II, active from Upstate Biotechnology, and AKT1 from Panvera.
(§1) The conditions of the kinase assay and the amount of active kinase used varied with the kinase and with the accuracy needed. For a typical experiment, 5-20 ng of kinase was used per well and each peptide pool was assayed in duplicate wells. Note that the absolute amount of kinase used was not usually a critical parameter, because the desired information related to specificity of the kinase not its absolute activity, and robustness of the assay depends on comparisons of the same amount of kinase on different peptides. The combination of kinase concentration and assay duration was modified to assure that the stoichiometry of peptide phosphorylation never exceeded 5%. The choice of kinase buffer depended on the kinase being analyzed. For studies of PKC, 100 mM HEPES, 0.05% Triton-X100, 1 mM CaCl2, 20 mM MgCl2, 0.2 mg/ml phosphatidyl serine (Avanti Polar Lipids), PMA 100 ng/ml was typically used. The lipid stock was prepared by transferring 3 mg phosphatidyl serine into iced mixture of 450 μl water plus 50 μl of 10% Triton-X100, sonicating 10 times on ice for 1 sec each.
(§2) The kinase reaction mixture was assembled by sequential addition to a tube held on ice of: 5 μl peptide (100 μM for final concentration of 10 μM), 15 μl of kinase (typically 5 ng/well, in appropriate kinase buffer), 30 μl of ATP (1 uCi/well of ^32P-gamma ATP in a stock of 167 μM cold ATP in the kinase buffer; for final concentration for 100 μM ATP). The mixture was rapidly warmed to desired reaction temperature (30° C. for PKC) and incubated for the desired duration (usually 10 minutes). The kinase assay was terminated by transfer to 4° C. water batch, and rapid addition of an equal volume (50 μl) of stop solution [0.1M ATP+0.1M EDTA in water, pH 8].
(§3) The peptides were then captured from the reaction mixture by transfer to a Reacti-Bind Streptavidin High Binding Capacity Coated Plates (HBC) (Pierce Biotechnology) as follows. The HBC plates were pre-rinsed three times with PBS/Tween PBS/Tween20 0.05% (PBS/Tween). Part of all of the reaction mixture was then transferred wells of a HBC plate pre-filled with 90 μl of phosphate-buffered saline (PBS); typically each aliquots of each phosphorylation reaction were transferred to duplicate HBC plates to assure accuracy by additional replication
For kinase assays done at the standard peptide concentration of 10 μM, the peptide concentration in the reaction mixture becomes 5 μM after addition of the stop solution; consequently 10 μl of the reaction (50 pMoles of peptide) was transferred to the HBC plate. More generally, the amount of reaction mixture transferred was estimated to be about 50 pMoles of peptide. […] The HBC plates were incubated for 0.5 to 1.5 hr at room temperature for complete binding of biotinylated peptides to plate-bound streptavidin. The HBC plates were then washed extensively with PBS/Tween. Five washes were done routinely and additional wash steps were added if the wash solution removed from the plate had measurable radioactivity as detected using a Geiger counter. This step is essential to obtaining a good the signal to noise ratio because the fraction of radioactivity incorporated in the peptides was a tiny fraction of the total in the reaction mixture. The wells were air-dried. A volume of 40-50 μl of microScint-20 (Packard Instruments) was added to each well. The plates were covered with stick-on film sheet. Radioactive emissions were measured in a TopCount NXT Microplate Scintillation and Luminescence Counter (Packard Instruments). Typically samples were counted for 5 minutes (or more) to improve the signal to noise ratio when counts were low. […]

[2] = system: PKC; assay: In vitro phosphorylation by PKC (average of isoforms alpha, epsilon, delta, theta); type: biochemical; conditions: average over PKC-theta, -epsilon and -alpha at 10 and 1 uM peptide, relative to best substrate
Description: as §1, §2, §3
For kinase assays done at the standard peptide concentration of 10 μM, the peptide concentration in the reaction mixture becomes 5 μM after addition of the stop solution; consequently 10 μl of the reaction (50 pMoles of peptide) was transferred to the HBC plate. More generally, the amount of reaction mixture transferred was estimated to be about 50 pMoles of peptide. […] The HBC plates were incubated for 0.5 to 1.5 hr at room temperature for complete binding of biotinylated peptides to plate-bound streptavidin. The HBC plates were then washed extensively with PBS/Tween. Five washes were done routinely and additional wash steps were added if the wash solution removed from the plate had measurable radioactivity as detected using a Geiger counter. This step is essential to obtaining a good the signal to noise ratio because the fraction of radioactivity incorporated in the peptides was a tiny fraction of the total in the reaction mixture. The wells were air-dried. A volume of 40-50 μl of microScint-20 (Packard Instruments) was added to each well. The plates were covered with stick-on film sheet. Radioactive emissions were measured in a TopCount NXT Microplate Scintillation and Luminescence Counter (Packard Instruments). Typically samples were counted for 5 minutes (or more) to improve the signal to noise ratio when counts were low.
Many peptides that are good substrates for PKC enzymes were identified using the methods of the invention. For example, Tables 4 and 5 provide a listing of peptides identified as potentially useful kinase substrates. […]

Row | Substance | phosphorylation by PKC zeta ([1]; peptide concentration 1 uM) | phosphorylation by PKC zeta ([1]; peptide concentration 10 uM) | average (phosphorylation by PKC-theta, -delta, -epsilon, -alpha) [2]
1 | 140 (TELEGGFSRQRKRKLSFRRR) [compound 140] | 24 | 49 | 30
2 | 141 (VTDSQKRREILSRRPSYRKI) [compound 141] | 26 | 78 | 29
3 | 142 (ERHVAQKKSRLRRRASQLKI) [compound 142] | 22 | 37 | 28
4 | 143 (VRYTPYTISPYNRKGSFRKQ) [compound 143] | 22 | 79 | 28
5 | 144 (LSSMFGTLPRKSRKGSVRKQ) [compound 144] | 16 | 54 | 28
6 | 145 (ISDFGLAKKLAVGRHSFSRR) [compound 145] | 25 | 61 | 27
7 | 146 (QAQRQIKRGAPPRRSSIRNA) [compound 146] | 32 | 56 | 27
8 | 147 (RDIRQSPKRGFLRSASLGRR) [compound 147] | 28 | 34 | 26
9 | 154 (KKFFTQGWAGWRKKTSFRKP) [compound 154] | 27 | 23 | 22
10 | 155 (RWDKRRWRKIPKRPGSVHRT) [compound 155] | 19 | 6 | 21
11 | 156 (SAQITIPKDGQKRKKSLRKK) [compound 156] | 15 | 44 | 20
12 | 157 (PSPSNETPKKKKKRFSFKKS) [compound 157] | 3 | 6 | 20
13 | 158 (VQMTWSYPDEKNKRASVRRR) [compound 158] | 11 | 72 | 19
14 | 159 (LYARLARAYRRSQRASFKRA) [compound 159] | 25 | 41 | 19
15 | 160 (PFEVVWYKDKRQLRSSKKYK) [compound 160] | 15 | 57 | 18
16 | 161 (KYKAFIRIPIPTRRHTFRRQ) [compound 161] | 15 | 9 | 18
17 | 162 (KKKFSFKKPFKLSGLSFKRN) [compound 162] | 7 | 4 | 17
18 | 163 (PPRTPGWHQLQPRRVSFRGE) [compound 163] | 7 | 26 | 16
